The text below walks through data of patent US20170165339A1 (IMMATICS BIOTECHNOLOGIES, published 2017).

To fix the notation:
B1: NALDKVLSV (SEQ ID NO: 81) (peptide)
peptide: NALDKVLSV
B2: FINDSIVYL (SEQ ID NO: 106) (peptide)
peptide: FINDSIVYL
B3: KVMATIEKV (SEQ ID NO: 124) (peptide)
peptide: KVMATIEKV
B4: VLLDIQEVFQI (SEQ ID NO: 102) (peptide)
peptide: VLLDIQEVFQI
B5: ALISWQPPRA (SEQ ID NO: 104) (peptide)
peptide: ALISWQPPRA
B6: VTPVTVSAV (SEQ ID NO: 120) (peptide)
peptide: VTPVTVSAV
B7: FLLGVSKEV (SEQ ID NO: 110) (peptide)
peptide: FLLGVSKEV
B8: RLFPDFFTRVAL (SEQ ID NO: 98) (peptide)
peptide: RLFPDFFTRVAL
B9: SLDPDTLPAV (SEQ ID NO: 115) (peptide)
peptide: SLDPDTLPAV
B10: ALLGMIIVGV (SEQ ID NO: 100) (peptide)
peptide: ALLGMIIVGV
B11: KLDGNELDL (SEQ ID NO: 127) (peptide)
peptide: KLDGNELDL
B12: FIFDEAEKL (SEQ ID NO: 82) (peptide)
peptide: FIFDEAEKL
B13: LLVPTSGIYFV (SEQ ID NO: 107) (peptide)
peptide: LLVPTSGIYFV
B14: VLDPALPALV (SEQ ID NO: 123) (peptide)
peptide: VLDPALPALV
B15: SVDSHFQEV (SEQ ID NO: 86) (peptide)
peptide: SVDSHFQEV
B16: VTFKEYVTV (SEQ ID NO: 79) (peptide)
peptide: VTFKEYVTV
B17: YLVSEIFKA (SEQ ID NO: 103) (peptide)
peptide: YLVSEIFKA
B18: AIVDLIHDI (SEQ ID NO: 111) (peptide)
peptide: AIVDLIHDI
B19: FLQDLEQRL (SEQ ID NO: 90) (peptide)
peptide: FLQDLEQRL
B20: QLWQFLVTL (SEQ ID NO: 118) (peptide)
peptide: QLWQFLVTL
B21: KLYEADFVL (SEQ ID NO: 80) (peptide)
peptide: KLYEADFVL
B22: QLAPVFQRV (SEQ ID NO: 89) (peptide)
peptide: QLAPVFQRV
B23: FLERGLESA (SEQ ID NO: 113) (peptide)
peptide: FLERGLESA
B24: ALCPRIHEV (SEQ ID NO: 84) (peptide)
peptide: ALCPRIHEV
B25: VLNDILVRA (SEQ ID NO: 85) (peptide)
peptide: VLNDILVRA
B26: GLLFSLRSV (SEQ ID NO: 92) (peptide)
peptide: GLLFSLRSV
B27: ILLKNLVTI (SEQ ID NO: 108) (peptide)
peptide: ILLKNLVTI
B28: AVGPVHNSV (SEQ ID NO: 76) (peptide)
peptide: AVGPVHNSV
B29: GQASYFYVA (SEQ ID NO: 83) (peptide)
peptide: GQASYFYVA
B30: GVVDPVHGV (SEQ ID NO: 122) (peptide)
peptide: GVVDPVHGV
B31: LLLPAVPVGA (SEQ ID NO: 94) (peptide)
peptide: LLLPAVPVGA
B32: SLDPSVTHL (SEQ ID NO: 109) (peptide)
peptide: SLDPSVTHL
B33: TVVTRLDEI (SEQ ID NO: 78) (peptide)
peptide: TVVTRLDEI
B34: KMPDVELFV (SEQ ID NO: 117) (peptide)
peptide: KMPDVELFV
B35: FTIFRTISV (SEQ ID NO: 121) (peptide)
peptide: FTIFRTISV
B36: AQADHLPQL (SEQ ID NO: 88) (peptide)
peptide: AQADHLPQL
B37: ALLGTKILL (SEQ ID NO: 105) (peptide)
peptide: ALLGTKILL
B38: SLADYEHFV (SEQ ID NO: 125) (peptide)
peptide: SLADYEHFV
B39: TQSPATLSV (SEQ ID NO: 128) (peptide)
peptide: TQSPATLSV
B40: TLIDEQDIPLV (SEQ ID NO: 77) (peptide)
peptide: TLIDEQDIPLV
B41: QMFQYFITV (SEQ ID NO: 126) (peptide)
peptide: QMFQYFITV
B42: ALADFMLSL (SEQ ID NO: 101) (peptide)
peptide: ALADFMLSL
B43: FIIQGLRSVGA (SEQ ID NO: 119) (peptide)
peptide: FIIQGLRSVGA
B44: TIYKDFVYI (SEQ ID NO: 87) (peptide)
peptide: TIYKDFVYI
B45: LLVSHLYLV (SEQ ID NO: 96) (peptide)
peptide: LLVSHLYLV
B46: SLGKFTFDV (SEQ ID NO: 112) (peptide)
peptide: SLGKFTFDV
B47: YLLQSVNQLLL (SEQ ID NO: 99) (peptide)
peptide: YLLQSVNQLLL
B48: GLLGSLFFL (SEQ ID NO: 95) (peptide)
peptide: GLLGSLFFL
B49: QLIQTLHAV (SEQ ID NO: 114) (peptide)
peptide: QLIQTLHAV

The assay addresses HLA-A*02 (human). As to the kind of experiment: UV peptide-exchange ELISA, yield grade. (In general: In an ELISA, binding on a coated surface is turned into a signal by an enzyme label.)
B1 came in with a peptide exchange yield of 50 to 75%.

Consider B2, for which the peptide exchange yield was in the range of 50 to 75%.

As for B3, the peptide exchange yield was in the range of 20 to 49%.

On to B4, for which the peptide exchange yield lay within 50 to 75%.

On to B5, for which the peptide exchange yield is 50 to 75%.

The molecule B6 displayed a peptide exchange yield of less than 20%.

For the molecule B7, the peptide exchange yield lay within 50 to 75%.

For B8, the peptide exchange yield lay in the range of 20 to 49%.

B9 yielded a peptide exchange yield of 20 to 49%.

The molecule B10 showed a peptide exchange yield of less than 20%.

Molecule B11 had a peptide exchange yield of 50 to 75%.

On to B12, for which the peptide exchange yield is less than 20%.

Turning to B13, the peptide exchange yield fell in the range of 50 to 75%.

Consider B14, for which the peptide exchange yield is 20 to 49%.

In turn, B15 displayed a peptide exchange yield of 20 to 49%.

Molecule B16 gave a peptide exchange yield of 20 to 49%.

Turning to B17, the peptide exchange yield fell in the range of 50 to 75%.

In turn, B18 displayed a peptide exchange yield of 20 to 49%.

As to B19, the peptide exchange yield fell in the range of 50 to 75%.

In the case of B20, the peptide exchange yield was 50 to 75%.

B21 yielded a peptide exchange yield of 20 to 49%.

B22 showed a peptide exchange yield of 20 to 49%.

With B23, the peptide exchange yield lay within 20 to 49%.

As for B24, the peptide exchange yield is no less than 75%.

Consider B25, for which the peptide exchange yield was 50 to 75%.

In turn, B26 came in with a peptide exchange yield of no less than 75%.

With B27, the peptide exchange yield lay within 20 to 49%.

B28: the peptide exchange yield is 20 to 49%.

For B29, the peptide exchange yield was 20 to 49%.

In turn, B30 yielded a peptide exchange yield of 20 to 49%.

B31: the peptide exchange yield was 50 to 75%.

Take B32: the peptide exchange yield lay in the range of 20 to 49%.

Molecule B33 registered a peptide exchange yield of 20 to 49%.

In the case of B34, the peptide exchange yield was in the range of 50 to 75%.

Take B35: the peptide exchange yield lay within 50 to 75%.

On to B36, for which the peptide exchange yield lay within 20 to 49%.

B37 gave a peptide exchange yield of 50 to 75%.

B38 gave a peptide exchange yield of no less than 75%.

B39 gave a peptide exchange yield of 20 to 49%.

B40 showed a peptide exchange yield of 50 to 75%.

B41 showed a peptide exchange yield of no less than 75%.

The molecule B42 showed a peptide exchange yield of 50 to 75%.

B43 returned a peptide exchange yield of 50 to 75%.

For B44, the peptide exchange yield is 20 to 49%.

In the case of B45, the peptide exchange yield is 20 to 49%.

The molecule B46 showed a peptide exchange yield of no less than 75%.

On to B47, for which the peptide exchange yield was 20 to 49%.

B48 returned a peptide exchange yield of no less than 75%.

B49: the peptide exchange yield lay in the range of 50 to 75%.
